Reference: patent US6506874
Substitutions are numbered along the chain they refer to. Names may count otherwise.

T1: human IGFBP-1 (human, UniProt P08833 26-259)
T1 construct: Secreted recombinant protein
T1 sequence (looked up): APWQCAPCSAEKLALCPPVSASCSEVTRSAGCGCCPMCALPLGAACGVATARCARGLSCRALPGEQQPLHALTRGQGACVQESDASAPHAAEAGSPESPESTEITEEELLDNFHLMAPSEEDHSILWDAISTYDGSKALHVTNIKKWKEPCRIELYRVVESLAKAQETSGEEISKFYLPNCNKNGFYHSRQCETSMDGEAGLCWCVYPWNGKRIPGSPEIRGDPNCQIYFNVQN

B1: IGF-I D12A (on G1S-A70V) displayed on phage (ligand)
chain: SPETLCGAELVAALQFVCGDRGFYFNKPTGYGSSSRRAPQTGIVDECCFRSCDLRRLEMYCAPLKPAKSV
notes: not shown: Display partner: M13 gene III protein fragment (residues 249-406) and the junction to it
B2: IGF-I D45A (on G1S-A70V) displayed on phage (ligand)
chain: B1 chain with A12D, D45A
notes: not shown: M13 gene III fragment (residues 249-406) used as phage-display carrier, and its junction to IGF-I
B3: IGF-I S34A (on G1S-A70V) displayed on phage (ligand, not shown: large carriers)
chain: B1 chain with A12D, S34A
B4: IGF-I Y31A (on G1S-A70V) displayed on phage (ligand, not shown: large carriers)
chain: B1 chain with A12D, Y31A
B5: IGF-I T29A (on G1S-A70V) displayed on phage (ligand, not shown: large carriers)
chain: B1 chain with A12D, T29A
B6: IGF-I P28A (on G1S-A70V) displayed on phage (ligand, not shown: large carriers; small tags and cut ends)
chain: B1 chain with A12D, P28A
B7: IGF-I G32A (on G1S-A70V) displayed on phage (ligand, not shown: large carriers)
chain: B1 chain with A12D, G32A
B8: IGF-I S33A (on G1S-A70V) displayed on phage (ligand, not shown: large carriers)
chain: B1 chain with A12D, S33A
B9: IGF-I P2A (on G1S-A70V) displayed on phage (ligand)
chain: B1 chain with P2A, A12D
notes: as for B2
B10: IGF-I E9A (on G1S-A70V) displayed on phage (ligand, not shown: large carriers)
chain: B1 chain with E9A, A12D
modifications: disulfide (positions not given here); not fully specified; also: displayed on M13 phage as gene III fusion
B11: IGF-I G30A (on G1S-A70V) displayed on phage (ligand, not shown: large carriers)
chain: B1 chain with A12D, G30A
B12: IGF-I G7A (on G1S-A70V) displayed on phage (ligand, not shown: large carriers)
chain: B1 chain with G7A, A12D
modifications: disulfide (positions not given here); not fully specified; also: displayed on M13 phage as gene III fusion

Target: T1, human IGFBP-1
Experiment: competitive phage ELISA
Description: (§1) Phage particles were harvested and resuspended in PBS buffer as described in Lowman, H. B., "Phage Display of Peptide Libraries on Protein Scaffolds," in Cabilly, S. (ed.), *Combinatorial Peptide Library Protocols* (Humana Press Inc.: Totowa, N.J., 1998), pp. 249–264. Then phage concentrations were normalized to yield a maximal ELISA signal of 0.2–0.4 for each mutant (Lowman, in Cabilly, S. (ed.), supra). Threefold serial dilutions of soluble competitor were prepared on non-absorbent microtiter plates (Nunc, F, 96 wells) with binding buffer (0.5% TWEEN™ 20/PBS) containing phage at the previously-determined concentrations. The dilution range of competitor protein extended over six orders of magnitude, starting at 5 μM for IGFBP-1 and 500 nM for IGFBP-3. After blocking, the plates containing immobilized target were washed with 0.05% TWEEN™ PBS buffer and subsequently incubated with 80 μl/well of the premixed phage-competitor solutions for 1 hour at room temperature. […] Numbers in Table I represent mean ±standard deviation of individually assessed $IC50$ values.
(§2) At least two different clones of every mutant were tested.

Point of comparison: B2, “fold increase in binding” value ~2 fold. Against it:
- B1 — the same, ~2 fold

Target: T1, human IGFBP-1
Experiment: competitive phage ELISA, soluble IGFBP-1
Description: as §1, §2

Point of comparison: B3, IC50 9.5 nM. Against it:
- B4 — within 1.5-fold, 6.8 nM
- B5 — within 1.5-fold, 7.3 nM
- B6 — within 1.5-fold, 9.3 nM
- B7 — within 1.5-fold, 10.9 nM
- B8 — within 1.5-fold, 9.1 nM
- B9 — within 1.5-fold, 11 nM
- B10 — within 1.5-fold, 8.6 nM
- B11 — within 1.5-fold, 7.1 nM

Target: T2, recombinant human IGFBP-3 (human, UniProt P17936 28-291)
T2 construct: Secreted recombinant protein
Experiment: competitive phage ELISA, soluble IGFBP-3
Description: as §1, §2

T2 sequence (P17936 28-291 limits assumed): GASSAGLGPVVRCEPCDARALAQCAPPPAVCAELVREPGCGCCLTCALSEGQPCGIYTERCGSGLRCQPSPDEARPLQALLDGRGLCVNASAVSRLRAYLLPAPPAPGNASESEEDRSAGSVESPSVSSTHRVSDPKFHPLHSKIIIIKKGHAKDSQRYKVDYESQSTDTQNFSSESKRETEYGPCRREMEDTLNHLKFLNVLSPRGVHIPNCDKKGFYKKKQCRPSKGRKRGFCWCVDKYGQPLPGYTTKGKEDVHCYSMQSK

Point of comparison: B9, IC50 0.81 nM. Against it:
- B3 — 2-fold higher, 1.65 nM
- B4 — within 1.5-fold, 0.73 nM
- B5 — 1.5-fold higher, 1.23 nM
- B6 — 1.7-fold higher, 1.41 nM
- B12 — 5.7-fold higher, 4.58 nM
- B7 — within 1.5-fold, 0.76 nM
- B8 — within 1.5-fold, 1.01 nM
- B10 — 1.6-fold higher, 1.32 nM
- B11 — within 1.5-fold, 0.58 nM
